Nine variants from IntAct's records for PubMed 25910212 can be followed below.

B1: EGF-containing fibulin-like extracellular matrix protein 1 (Homo sapiens), Q12805 (parent)
chain: MLKALFLTMLTLALVKSQDTEETITYTQCTDGYEWDPVRQQCKDIDECDIVPDACKGGMKCVNHYGGYLCLPKTAQIIVNNEQPQQETQPAEGTSGATTGVVAASSMATSGVLPGGGFVASAAAVAGPEMQTGRNNFVIRRNPADPQRIPSNPSHRIQCAAGYEQSEHNVCQDIDECTAGTHNCRADQVCINLRGSFACQCPPGYQKRGEQCVDIDECTIPPYCHQRCVNTPGSFYCQCSPGFQLAANNYTCVDINECDASNQCAQQCYNILGSFICQCNQGYELSSDRLNCEDIDECRTSSYLCQYQCVNEPGKFSCMCPQGYQVVRSRTCQDINECETTNECREDEMCWNYHGGFRCYPRNPCQDPYILTPENRCVCPVSNAMCRELPQSIVYKYMSIRSDRSVPSDIFQIQATTIYANTINTFRIKSGNENGEFYLRQTSPVSAMLVLVKSLSGPREHIVDLEMLTVSSIGTFRTSSVLRLTIIVGPFSF
B2: Krev interaction trapped protein 1 (Homo sapiens), O00522 (parent)
chain: MGNPENIEDAYVAVIRPKNTASLNSREYRAKSYEILLHEVPIEGQKKKRKKVLLETKLQGNSEITQGILDYVVETTKPISPANQGIRGKRVVLMKKFPLDGEKMGREASLFIVPSVVKDNTKYTYTPGCPIFYCLQDIMRVCSESSTHFATLTARMLIALDKWLDERHAQSHFIPALFRPSPLERIKTNVINPAYATESGQTENSLHMGYSALEIKSKMLALEKADTCIYNPLFGSDLQYTNRVDKVVINPYFGLGAPDYSKIQIPKQEKWQRSMSSVTEDKERQWVDDFPLHRSACEGDSELLSRLLSERFSVNQLDSDHWAPIHYACWYGKVEATRILLEKGKCNPNLLNGQLSSPLHFAAGGGHAEIVQILLNHPETDRHITDQQGRSPLNICEENKQNNWEEAAKLLKEAINKPYEKVRIYRMDGSYRSVELKHGNNTTVQQIMEGMRLSQETQQYFTIWICSENLSLQLKPYHKPLQHVRDWPEILAELTNLDPQRETPQLFLRRDVRLPLEVEKQIEDPLAILILFDEARYNLLKGFYTAPDAKLITLASLLLQIVYGNYESKKHKQGFLNEENLKSIVPVTKLKSKAPHWTNRILHEYKNLSTSEGVSKEMHHLQRMFLQNCWEIPTYGAAFFTGQIFTKASPSNHKVIPVYVGVNIKGLHLLNMETKALLISLKYGCFMWQLGDTDTCFQIHSMENKMSFIVHTKQAGLVVKLLMKLNGQLMPTERNS
B3: Apolipoprotein D (Homo sapiens), P05090 (parent)
chain: MVMLLLLLSALAGLFGAAEGQAFHLGKCPNPPVQENFDVNKYLGRWYEIEKIPTTFENGRCIQANYSLMENGKIKVLNQELRADGTVNQIEGEATPVNLTEPAKLEVKFSWFMPSAPYWILATDYENYALVYSCTCIIQLFHVDFAWILARNPNLPPETVDSLKNILTSNNIDVKKMTVTDQVNCPKLS
partner: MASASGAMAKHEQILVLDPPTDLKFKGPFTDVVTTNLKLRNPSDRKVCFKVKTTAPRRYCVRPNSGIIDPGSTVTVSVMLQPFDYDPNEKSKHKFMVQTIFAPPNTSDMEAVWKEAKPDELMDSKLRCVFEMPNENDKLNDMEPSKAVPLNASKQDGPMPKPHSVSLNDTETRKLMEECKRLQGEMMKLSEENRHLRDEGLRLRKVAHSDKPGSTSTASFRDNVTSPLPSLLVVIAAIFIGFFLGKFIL
B4: Estrogen receptor beta (Homo sapiens), Q92731-3 (parent)
chain: MDIKNSPSSLNSPSSYNCSQSILPLEHGSIYIPSSYVDSHHEYPAMTFYSPAVMNYSIPSNVTNLEGGPGRQTTSPNVLWPTPGHLSPLVVHRQLSHLYAEPQKSPWCEARSLEHTLPVNRETLKRKVSGNRCASPVTGPGSKRDAHFCAVCSDYASGYHYGVWSCEGCKAFFKRSIQGHNDYICPATNQCTIDKNRRKSCQACRLRKCYEVGMVKCGSRRERCGYRLVRRQRSADEQLHCAGKAKRSGGHAPRVRELLLDALSPEQLVLTLLEAEPPHVLISRPSAPFTEASMMMSLTKLADKELVHMISWAKKIPGMRGNA
B5: B-cell antigen receptor complex-associated protein beta chain (Homo sapiens), P40259 (parent)
chain: MARLALSPVPSHWMVALLLLLSAEPVPAARSEDRYRNPKGSACSRIWQSPRFIARKRGFTVKMHCYMNSASGNVSWLWKQEMDENPQQLKLEKGRMEESQNESLATLTIQGIRFEDNGIYFCQQKCNNTSEVYQGCGTELRVMGFSTLAQLKQRNTLKDGIIMIQTLLIILFIIVPIFLLLDKDDSKAGMEEDHTYEGLDIDQTATYEDIVTLRTGEVKWSVGEHPGQE
B6: Probetacellulin (Homo sapiens), P35070 (parent)
chain: MDRAARCSGASSLPLLLALALGLVILHCVVADGNSTRSPETNGLLCGDPEENCAATTTQSKRKGHFSRCPKQYKHYCIKGRCRFVVAEQTPSCVCDEGYIGARCERVDLFYLRGDRGQILVICLIAVMVVFIILVIGVCTCCHPLRKRRKRKKKEEEMETLGKDITPINEDIEETNIA
B7: Cyclin-dependent kinase 4 (Homo sapiens), P11802 (parent)
chain: MATSRYEPVAEIGVGAYGTVYKARDPHSGHFVALKSVRVPNGGGGGGGLPISTVREVALLRRLEAFEHPNVVRLMDVCATSRTDREIKVTLVFEHVDQDLRTYLDKAPPPGLPAETIKDLMRQFLRGLDFLHANCIVHRDLKPENILVTSGGTVKLADFGLARIYSYQMALTPVVVTLWYRAPEVLLQSTYATPVDMWSVGCIFAEMFRRKPLFCGNSEADQLGKIFDLIGLPPEDDWPRDVSLPRGAFPPRGPRPVQSVVPEMEESGAQLLLEMLTFNPHKRISAFRALQHSYLHKDEGNPE
partner: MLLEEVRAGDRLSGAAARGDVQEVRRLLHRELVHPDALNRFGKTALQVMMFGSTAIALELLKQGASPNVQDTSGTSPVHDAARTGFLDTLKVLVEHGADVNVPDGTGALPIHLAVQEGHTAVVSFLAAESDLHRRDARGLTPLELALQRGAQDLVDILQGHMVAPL

The variants in one test derive from B1. The note with it: with sgta_human SGTA.
Target sequence in this assay (O43765 whole entry): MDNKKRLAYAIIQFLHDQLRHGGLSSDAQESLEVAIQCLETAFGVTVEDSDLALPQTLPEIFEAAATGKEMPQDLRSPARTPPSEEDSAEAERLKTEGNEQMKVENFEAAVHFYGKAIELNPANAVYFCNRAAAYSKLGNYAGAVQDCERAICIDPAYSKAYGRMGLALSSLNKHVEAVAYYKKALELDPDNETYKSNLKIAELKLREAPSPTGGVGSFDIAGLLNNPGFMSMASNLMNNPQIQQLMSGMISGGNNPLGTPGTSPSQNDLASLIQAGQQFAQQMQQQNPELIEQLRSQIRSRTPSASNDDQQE
For the variant MLKALFLTMLTLALVKSQDTEETITYTQCTDGYEWDPVRQQCKDIDECDIVPDACKGGMKCVNHYGGYLCLPKTAQIIVNNEQPQQETQPAEGTSGATTGVVAASSMATSGVLPGGGFVASAAAVAGPEMQTGRNNFVIRRNPADPQRIPSNPSHRIQCAAGYEQSEHNVCQDIDECTAGTHNCRADQVCINLRGSFACQCPPGYQKRGEQCVDIDECTIPPYCHQRCVNTPGSFYCQCSPGFQLAANNYTCVDINECDASNQCAQQCYNILGSFICQCNQGYELSSDRLNCEDIDECRTSSYLCQYQCVNEPGKFSCMCPQGYQVVRSRTCQDINECETTNECWEDEMCWNYHGGFRCYPRNPCQDPYILTPENRCVCPVSNAMCRELPQSIVYKYMSIRSDRSVPSDIFQIQATTIYANTINTFRIKSGNENGEFYLRQTSPVSAMLVLVKSLSGPREHIVDLEMLTVSSIGTFRTSSVLRLTIIVGPFSF [R345W], the “effect of a mutation on the interaction” value is “with no effect”.

Variants of B1 are the subject of the next test. The note with it: with meox2_human MEOX2, P50222.
meox2_human MEOX2, P50222, sequence (P50222 whole entry): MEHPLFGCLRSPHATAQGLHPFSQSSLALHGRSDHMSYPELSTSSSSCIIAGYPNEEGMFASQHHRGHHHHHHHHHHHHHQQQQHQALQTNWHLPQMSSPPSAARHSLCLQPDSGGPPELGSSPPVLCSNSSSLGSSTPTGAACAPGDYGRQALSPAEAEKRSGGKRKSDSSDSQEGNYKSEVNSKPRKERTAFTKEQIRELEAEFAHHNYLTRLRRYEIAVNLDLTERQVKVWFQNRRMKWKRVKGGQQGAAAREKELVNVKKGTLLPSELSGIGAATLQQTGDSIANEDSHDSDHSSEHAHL
On to MLKALFLTMLTLALVKSQDTEETITYTQCTDGYEWDPVRQQCKDIDECDIVPDACKGGMKCVNHYGGYLCLPKTAQIIVNNEQPQQETQPAEGTSGATTGVVAASSMATSGVLPGGGFVASAAAVAGPEMQTGRNNFVIRRNPADPQRIPSNPSHRIQCAAGYEQSEHNVCQDIDECTAGTHNCRADQVCINLRGSFACQCPPGYQKRGEQCVDIDECTIPPYCHQRCVNTPGSFYCQCSPGFQLAANNYTCVDINECDASNQCAQQCYNILGSFICQCNQGYELSSDRLNCEDIDECRTSSYLCQYQCVNEPGKFSCMCPQGYQVVRSRTCQDINECETTNECWEDEMCWNYHGGFRCYPRNPCQDPYILTPENRCVCPVSNAMCRELPQSIVYKYMSIRSDRSVPSDIFQIQATTIYANTINTFRIKSGNENGEFYLRQTSPVSAMLVLVKSLSGPREHIVDLEMLTVSSIGTFRTSSVLRLTIIVGPFSF [R345W], for which the “effect of a mutation on the interaction” value is reported as “with no effect”.

A further test covers variants of B2. As to conditions: with ccm2_human CCM2, Q9BSQ5.
ccm2_human CCM2, Q9BSQ5, sequence (Q9BSQ5 whole entry): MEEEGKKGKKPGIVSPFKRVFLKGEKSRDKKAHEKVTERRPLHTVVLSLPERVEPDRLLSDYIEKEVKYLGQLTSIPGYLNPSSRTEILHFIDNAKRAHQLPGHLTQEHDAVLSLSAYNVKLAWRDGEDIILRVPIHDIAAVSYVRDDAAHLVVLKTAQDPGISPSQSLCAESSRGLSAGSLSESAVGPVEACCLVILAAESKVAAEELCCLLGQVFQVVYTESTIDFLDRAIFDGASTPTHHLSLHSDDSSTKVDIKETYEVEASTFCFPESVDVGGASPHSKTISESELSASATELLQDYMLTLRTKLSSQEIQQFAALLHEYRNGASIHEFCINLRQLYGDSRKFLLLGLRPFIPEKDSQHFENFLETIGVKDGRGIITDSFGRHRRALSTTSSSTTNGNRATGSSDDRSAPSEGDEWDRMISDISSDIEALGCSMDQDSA
Consider D137G, for which the “effect of a mutation on the interaction” value is given as “with no effect”.

In a further test the parent is B3. As to conditions: with vapa_human VAPA.
Turning to F56V, the “effect of a mutation on the interaction” value was “with no effect”.

The next test covers variants of B4. As to conditions: with tfcp2_human TFCP2, Q12800.
tfcp2_human TFCP2, Q12800, sequence (Q12800 whole entry): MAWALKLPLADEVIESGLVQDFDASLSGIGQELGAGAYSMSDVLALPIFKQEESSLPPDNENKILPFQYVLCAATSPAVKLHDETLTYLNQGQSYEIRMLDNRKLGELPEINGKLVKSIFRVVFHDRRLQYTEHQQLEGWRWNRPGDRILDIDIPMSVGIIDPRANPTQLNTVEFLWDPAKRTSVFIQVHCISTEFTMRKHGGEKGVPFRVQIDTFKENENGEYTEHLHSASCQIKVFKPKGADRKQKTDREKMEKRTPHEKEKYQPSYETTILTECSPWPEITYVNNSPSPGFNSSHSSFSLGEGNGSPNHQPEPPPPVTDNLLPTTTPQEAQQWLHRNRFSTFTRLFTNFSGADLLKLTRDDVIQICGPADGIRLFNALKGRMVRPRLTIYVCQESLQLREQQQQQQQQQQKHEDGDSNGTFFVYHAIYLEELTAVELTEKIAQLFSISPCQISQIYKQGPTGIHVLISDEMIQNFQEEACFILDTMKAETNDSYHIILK
Turning to MDIKNSPSSLNSPSSYNCSQSILPLEHGSIYIPSSYVDSHHEYPAMTFYSPAVMNYSIPSNVTNLEGGPGRQTTSPNVLWPTPGHLSPLVVHRQLSHLYAEPQKSPWCEARSLEHTLPVNRETLKRKVSGNRCASPVTGPGSKRDAHFCAVCSDYASGYHYGVWSCEGCKAFFKRSIQGHNDYICPATNQCTIDKNRRKSCQACRLRKCYEVGMVKCGSRRERCGYRLVRRQRSADEQLHCAGKAKRSGGHAPRVRELLLDALSPEQLVLTLLEAEPPHVLISRPSAPLTEASMMMSLTKLADKELVHMISWAKKIPGMRGNA [F289L], the “effect of a mutation on the interaction” value is “causing an interaction”.

The variants in the next test derive from B4. As to conditions: with mdfi_human MDFI.
Consider MDIKNSPSSLNSPSSYNCSQSILPLEHGSIYIPSSYVDSHHEYPAMTFYSPAVMNYSIPSNVTNLEGGPGRQTTSPNVLWPTPGHLSPLVVHRQLSHLYAEPQKSPWCEARSLEHTLPVNRETLKRKVSGNRCASPVTGPGSKRDAHFCAVCSDYASGYHYGVWSCEGCKAFFKRSIQGHNDYICPATNQCTIDKNRRKSCQACRLRKCYEVGMVKCGSRRERCGYRLVRRQRSADEQLHCAGKAKRSGGHAPRVRELLLDALSPEQLVLTLLEAEPPHVLISRPSAPLTEASMMMSLTKLADKELVHMISWAKKIPGMRGNA [F289L], for which the “effect of a mutation on the interaction” value is “causing an interaction”.

Variants of B5 are the subject of the next test. The note with it: with sgta_human SGTA.
Target sequence in this assay (O43765 whole entry): as the sequence (O43765 whole entry) above
For the variant MARLALSPVPSHWMVALLLLLSAEPVPAARSEDRYRNPKGSACSRIWQSPRFIARKRGFTVKMHCYMNSASGNVSWLWKQEMDENPQQLKLEKGRMEESQNESLATLTIQGIRFEDNGIYFCQQKCNNTSEVYQGCSTELRVMGFSTLAQLKQRNTLKDGIIMIQTLLIILFIIVPIFLLLDKDDSKAGMEEDHTYEGLDIDQTATYEDIVTLRTGEVKWSVGEHPGQE [G137S], the “effect of a mutation on the interaction” value is recorded as “disrupting interaction strength”.

A further test covers variants of B6. As to conditions: with sgta_human SGTA.
Target sequence in this assay (O43765 whole entry): as the sequence (O43765 whole entry) above
On to MDRAARGSGASSLPLLLALALGLVILHCVVADGNSTRSPETNGLLCGDPEENCAATTTQSKRKGHFSRCPKQYKHYCIKGRCRFVVAEQTPSCVCDEGYIGARCERVDLFYLRGDRGQILVICLIAVMVVFIILVIGVCTCCHPLRKRRKRKKKEEEMETLGKDITPINEDIEETNIA [C7G], for which the “effect of a mutation on the interaction” value is “with no effect”.

The next test covers variants of B7. The note with it: with cdn2d_human CDKN2D.
MATSRYEPVAEIGVGAYGTVYKARDPHSGHFVALKSVRVPNGGGGGGGLPINTVREVALLRRLEAFEHPNVVRLMDVCATSRTDREIKVTLVFEHVDQDLRTYLDKAPPPGLPAETIKDLMRQFLRGLDFLHANCIVHRDLKPENILVTSGGTVKLADFGLARIYSYQMALTPVVVTLWYRAPEVLLQSTYATPVDMWSVGCIFAEMFRRKPLFCGNSEADQLGKIFDLIGLPPEDDWPRDVSLPRGAFPPRGPRPVQSVVPEMEESGAQLLLEMLTFNPHKRISAFRALQHSYLHKDEGNPE [S52N]: the “effect of a mutation on the interaction” value was “with no effect”. Take MATSRYEPVAEIGVGAYGTVYKAHDPHSGHFVALKSVRVPNGGGGGGGLPISTVREVALLRRLEAFEHPNVVRLMDVCATSRTDREIKVTLVFEHVDQDLRTYLDKAPPPGLPAETIKDLMRQFLRGLDFLHANCIVHRDLKPENILVTSGGTVKLADFGLARIYSYQMALTPVVVTLWYRAPEVLLQSTYATPVDMWSVGCIFAEMFRRKPLFCGNSEADQLGKIFDLIGLPPEDDWPRDVSLPRGAFPPRGPRPVQSVVPEMEESGAQLLLEMLTFNPHKRISAFRALQHSYLHKDEGNPE [R24H]: the “effect of a mutation on the interaction” value is “with no effect”.

As to MATSRYEPVAEIGVGAYGTVYKACDPHSGHFVALKSVRVPNGGGGGGGLPISTVREVALLRRLEAFEHPNVVRLMDVCATSRTDREIKVTLVFEHVDQDLRTYLDKAPPPGLPAETIKDLMRQFLRGLDFLHANCIVHRDLKPENILVTSGGTVKLADFGLARIYSYQMALTPVVVTLWYRAPEVLLQSTYATPVDMWSVGCIFAEMFRRKPLFCGNSEADQLGKIFDLIGLPPEDDWPRDVSLPRGAFPPRGPRPVQSVVPEMEESGAQLLLEMLTFNPHKRISAFRALQHSYLHKDEGNPE [R24C], the “effect of a mutation on the interaction” value is “with no effect”.
